The values that follow come from PMC5511134, “Intrinsic dynamics study identifies two amino acids of TIMP-1 critical for its LRP-1-mediated endocytosis in neurons” (Scientific Reports, 2017).

One assay deals with T1, MMP-3 catalytic domain (UniProt P08254 100-272).
T1 construct: MMP-3 catalytic domain; source: bought: Merck Biosciences
The assay is described as follows: enzyme inhibition assay (fluorogenic substrate, Morrison equation); 2.3 nM MMP-3 catalytic domain incubated 1 h at 27 °C with 0.1 to 5.4 nM TIMP-1 or mutants in 50 mM Tris-HCl pH 7.5, 150 mM NaCl, 5 mM CaCl2; 3 µM MMP-3 fluorogenic substrate. The note with it: both partners purified.

The target in assay [1] is T2, Recombinant LRP-1 mini-domain DIV with an Fc-tag (UniProt Q07954 3332-3778).
T2 construct: No catalogue number is printed; also called LRP-1 domain IV; source: bought: R&D
T2 sequence (Q07954 3332-3778): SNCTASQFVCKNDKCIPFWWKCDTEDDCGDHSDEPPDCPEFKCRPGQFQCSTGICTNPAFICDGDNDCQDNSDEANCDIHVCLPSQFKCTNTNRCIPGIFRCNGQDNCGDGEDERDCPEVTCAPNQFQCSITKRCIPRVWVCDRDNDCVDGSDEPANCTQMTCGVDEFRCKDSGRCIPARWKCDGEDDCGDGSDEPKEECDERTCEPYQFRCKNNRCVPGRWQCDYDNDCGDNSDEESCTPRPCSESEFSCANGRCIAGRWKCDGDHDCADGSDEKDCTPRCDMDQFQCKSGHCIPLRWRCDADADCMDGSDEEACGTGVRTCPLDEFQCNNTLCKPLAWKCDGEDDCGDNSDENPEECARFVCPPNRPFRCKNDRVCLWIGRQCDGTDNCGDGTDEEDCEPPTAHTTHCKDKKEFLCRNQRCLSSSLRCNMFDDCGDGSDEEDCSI
The assay is described as follows: SPR; Biacore T200; LRP-1 DII or DIV with Fc-tag immobilised on a CMD500m chip functionalised with anti-Fc antibody; TIMP-1 or mutants 5-160 nM injected, multi-cycle kinetics; HBS-N (50 mM Hepes, 150 mM NaCl, 0.005% Tween, pH 7.4); KD calculated from kon and koff. The note with it: both partners purified.

Assay [2] has as its target T3, Recombinant LRP-1 mini-domain DII with an Fc-tag (UniProt Q07954 852-1182).
T3 construct: No catalogue number is printed; also called LRP-1 domain II; source: bought: R&D
T3 sequence (looked up): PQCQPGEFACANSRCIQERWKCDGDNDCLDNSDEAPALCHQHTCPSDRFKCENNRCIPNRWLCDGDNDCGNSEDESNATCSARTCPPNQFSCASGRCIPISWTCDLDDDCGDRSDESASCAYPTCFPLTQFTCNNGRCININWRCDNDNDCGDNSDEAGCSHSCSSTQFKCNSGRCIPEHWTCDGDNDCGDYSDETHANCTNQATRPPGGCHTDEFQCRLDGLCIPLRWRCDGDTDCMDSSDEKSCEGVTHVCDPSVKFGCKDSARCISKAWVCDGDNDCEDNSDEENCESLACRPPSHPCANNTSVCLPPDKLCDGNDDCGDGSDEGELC
Described as above. Conditions: both partners purified.

Another assay deals with T4, MMP-2 (UniProt P08253 110-660).
T4 construct: MMP-2; source: bought: Merck Biosciences
T4 sequence (looked up): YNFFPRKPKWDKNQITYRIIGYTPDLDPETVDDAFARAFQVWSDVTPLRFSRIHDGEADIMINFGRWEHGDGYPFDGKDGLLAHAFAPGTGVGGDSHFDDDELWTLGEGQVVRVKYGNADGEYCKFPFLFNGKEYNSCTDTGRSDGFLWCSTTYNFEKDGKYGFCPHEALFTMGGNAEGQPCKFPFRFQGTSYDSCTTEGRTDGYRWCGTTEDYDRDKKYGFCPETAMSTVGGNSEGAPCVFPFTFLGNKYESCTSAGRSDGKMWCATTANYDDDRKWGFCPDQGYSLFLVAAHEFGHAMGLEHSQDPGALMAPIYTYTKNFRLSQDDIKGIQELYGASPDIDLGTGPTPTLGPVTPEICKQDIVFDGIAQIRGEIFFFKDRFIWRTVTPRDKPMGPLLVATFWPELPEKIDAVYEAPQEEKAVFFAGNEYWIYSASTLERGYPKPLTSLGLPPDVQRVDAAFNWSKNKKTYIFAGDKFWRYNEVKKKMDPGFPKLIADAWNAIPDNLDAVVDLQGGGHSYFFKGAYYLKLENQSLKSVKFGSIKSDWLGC
The experiment in a line: enzyme inhibition assay (fluorogenic substrate, Morrison equation); 0.76 nM MMP-2 incubated 2 h at 27 °C with 0.17 to 13.5 nM TIMP-1 or mutants in 50 mM Tris-HCl pH 7.5, 150 mM NaCl, 5 mM CaCl2; 2.5 µM MMP-2/-7 fluorogenic substrate. The note with it: both partners purified.

The target of the next assay is T5, MMP-9 (UniProt P14780 107-707).
T5 construct: MMP-9; source: bought: Merck Biosciences
T5 sequence (P14780 107-707): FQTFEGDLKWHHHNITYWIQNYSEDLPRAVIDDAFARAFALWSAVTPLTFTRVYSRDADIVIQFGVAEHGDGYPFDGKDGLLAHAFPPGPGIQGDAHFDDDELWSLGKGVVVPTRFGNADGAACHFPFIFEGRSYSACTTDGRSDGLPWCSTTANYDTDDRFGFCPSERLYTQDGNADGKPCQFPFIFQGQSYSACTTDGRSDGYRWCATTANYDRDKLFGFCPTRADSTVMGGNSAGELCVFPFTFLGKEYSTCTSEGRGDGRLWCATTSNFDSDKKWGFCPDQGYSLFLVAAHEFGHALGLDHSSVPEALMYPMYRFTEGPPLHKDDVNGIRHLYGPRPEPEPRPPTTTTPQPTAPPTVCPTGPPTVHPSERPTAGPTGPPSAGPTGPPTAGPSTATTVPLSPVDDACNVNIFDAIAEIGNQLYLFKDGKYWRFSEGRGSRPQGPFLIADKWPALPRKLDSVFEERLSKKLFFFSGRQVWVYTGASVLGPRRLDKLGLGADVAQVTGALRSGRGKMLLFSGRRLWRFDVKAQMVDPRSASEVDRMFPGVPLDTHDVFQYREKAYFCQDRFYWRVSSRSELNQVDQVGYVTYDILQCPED
The experiment in a line: enzyme inhibition assay (fluorogenic substrate, Morrison equation); 0.3 nM MMP-9 incubated 2 h at 27 °C with 0.7 to 11 nM TIMP-1 or mutants in 50 mM Tris-HCl pH 7.5, 150 mM NaCl, 5 mM CaCl2; 5 µM MMP-1/-9 fluorogenic substrate. The note with it: both partners purified.

Assay [3] has as its target T6, low-density lipoprotein receptor-related protein-1 (LRP-1) on mouse cortical neurons (mouse (endogenous in cortical neurons), UniProt Q91ZX7 20-4545).
T6 construct: LRP-1 at the surface of primary cortical neurons; extracellular alpha-chain non-covalently associated with the transmembrane beta-chain; source: endogenous, primary cortical neurons from CD1 mouse embryos
The assay is described as follows: fluorescence of ligand bound to the cell surface (released by pronase, spectrofluorimetry); mouse cortical neurons incubated at 4 °C with 5 nM eFluor-conjugated TIMP-1 or mutants, with or without 500 nM RAP or 30 µg/mL LRP-1 blocking antibodies R2629; washed, surface-digested with 0.1% pronase, fluorescence of the supernatant. Conditions: one partner purified.

T1 sequence (P08254 100-272): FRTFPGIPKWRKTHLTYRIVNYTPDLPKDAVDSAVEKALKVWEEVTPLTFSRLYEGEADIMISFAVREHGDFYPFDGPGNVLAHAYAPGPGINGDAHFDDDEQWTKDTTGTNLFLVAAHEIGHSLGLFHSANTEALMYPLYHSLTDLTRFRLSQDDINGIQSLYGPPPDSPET

B1: FLAG-tagged TIMP-1 (tissue inhibitor of metalloproteinases-1), wild type (natural protein)
chain: not shown
modifications: glycosylated
notes: TIMP-1, cDNA from Origene (pCMV6-XL5) cloned into p3XFLAG-CMV14 from the start ATG; secreted by CHO cells. numbers count on: the mature protein; its concentration was measured with a Human TIMP-1 ELISA kit and the modelling used PDB 1UEA; also called T1-WT; wild-type TIMP-1; source: CHO cells, stably transfected; not shown: 3X-FLAG, C-terminal, kept
As to B1, the Ki in the assay with MMP-3 catalytic domain stood at 1.18 nM; in the assay with MMP-2, 0.09 nM; with MMP-9 it was 4.25 nM. For the same molecule, the values for the Kd in assay [1] and in assay [2] were 37.4 nM and 10.8 nM, respectively. The koff in assay [1] was 0.0056 s⁻¹; in assay [2], 0.0136 s⁻¹. For the same molecule, the kon was 148000 M⁻¹ s⁻¹ in assay [1] and 1.28e+06 M⁻¹ s⁻¹ in assay [2].

B2: FLAG-tagged TIMP-1 F12A (natural protein)
chain: not shown
modifications: glycosylated
notes: TIMP-1, cDNA from Origene, site-directed mutant F12A; secreted by CHO cells; also called T1-F12A; source: CHO cells, stably transfected; not shown: 3X-FLAG, C-terminal, kept
As for B2, the Ki stood at 0.58 nM with MMP-3 catalytic domain, 0.06 nM with MMP-2 and 4.76 nM with MMP-9. The Kd in assay [1] was 38.7 nM; in assay [2] it was 18.5 nM. Also, the koff in assay [1] is 0.0055 s⁻¹; in assay [2], 0.0192 s⁻¹. Also, the kon in assay [1] is 143000 M⁻¹ s⁻¹; in assay [2], 1.07e+06 M⁻¹ s⁻¹.

B3: FLAG-tagged TIMP-1 K47A (natural protein)
chain: not shown
modifications: glycosylated
notes: TIMP-1, cDNA from Origene, site-directed mutant K47A; secreted by CHO cells; also called T1-K47A; T1K47A; source: CHO cells, stably transfected; not shown: 3X-FLAG, C-terminal, kept
In the case of B3, the Ki in the assay with MMP-3 catalytic domain is 0.55 nM. Moreover, in assay [1], the Kd was 26.5 nM, the koff was 0.0114 s⁻¹ and the kon is 427000 M⁻¹ s⁻¹. Moreover, in the assay with MMP-2, the Ki was determined as 0.03 nM. The same molecule displayed a Ki in the assay with MMP-9 of 4.4 nM.

B4: eFluor-conjugated T1-WT (natural protein)
chain: not shown
modifications: biotinylated (ProtOn Biotin Labelling Kit), incubated with eFluor 450 Streptavidin
notes: TIMP-1 as in m1 (T1-WT), labelled. numbers count on: the mature protein; also called fluoT1-WT; fluo-T1-WT; source: CHO cells, stably transfected
On to B4, for which the “fluorescence at the cell surface” value in assay [3] was about 1500 A.U.

B5: eFluor-conjugated T1-K47A (natural protein)
chain: not shown
modifications: biotinylated (ProtOn Biotin Labelling Kit), incubated with eFluor 450 Streptavidin
notes: TIMP-1 K47A as in m3, labelled; also called fluoT1-K47A; fluoT1K47A; source: CHO cells, stably transfected
On to B5, for which, in assay [3], the “fluorescence at the cell surface” value was about 1500 A.U.

B6: eFluor-conjugated T1-F12A (natural protein)
chain: not shown
modifications: biotinylated (ProtOn Biotin Labelling Kit), incubated with eFluor 450 Streptavidin
notes: TIMP-1 F12A as in m2, labelled; also called fluoT1-F12A; fluo-T1-F12A; source: CHO cells, stably transfected
In the case of B6, the “fluorescence at the cell surface” value in assay [3] is about 1500 A.U.

The term Ki denotes a measure of affinity in units of concentration, obtained from inhibition or displacement. Lower therefore signals higher affinity. One may read the Kd as the free concentration of one partner at which half of the binding sites on the other are occupied at equilibrium, for simple one-to-one binding. The koff is the rate constant with which the complex falls apart. Usually kon stands for a measure of how fast the partners come together.
